Data published in the RNAGym collection of RNA variant scans (doi:10.1073/pnas.2313332121).

B1: TPR t1 (parent)
chain: GACCAAUCUGCCCUCAGAGCUCGAGAACAUCUUCGGAUGCAGAGGAGGCAGGCUUCGGUGGCGCGAUAGCGCCAACGUCCUCAACCUCCAAUGCAUCCCACCACAUGAUGAUGCCUGAAGAGCCUUGGUUUUUUG

Variants of: B1
Assay: polymerase ribozyme fitness, log enrichment relative to wild type (log ratio); higher = more active; in vitro selection for triplet polymerase activity
Method in brief: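 Mutant libraries of each subunit of a heterodimeric triplet polymerase ribozyme were built by PCR and transcribed. Each library went through one round of in vitro selection in triplicate: annealing with biotinylated primer, partner subunit and triplets, frozen incubation at −7 °C, gel excision of extended constructs, streptavidin-bead capture and RT-PCR. Input and output libraries were Illumina-sequenced; only genotypes with ≥10 input reads and ≥1 read per output were kept. Fitness is log2(genotype enrichment/wild-type enrichment), using inverse-variance-weighted replicate averages.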

Variant	polymerase ribozyme fitness (log ratio)
GACCAAUCUUCCCUCAGAGCUCGAGAACAUCUUCGGAUGCAGAGGAGGCAGGCUUCGGUGGCGCGAUAGCGCCAACGUCCUCAACCUCCAAUGCAUCCCACCACAUGAUGAUGCCUGAAGAACCUUGGUUUUUUG [G10U G122A]	0.462
GACCAAUCUGCCCUCAGAGCUCGAGAACAUCUUCGGAUGCAGAGGAGGCAGGCUUCGGUGGCGCGAUAGCGCCAUCGUCCUCAACCUCCAAUGCAUCCCACCAAAUGAUGAUGCCUGAAGUGCUUUGGUUUUUUG [A75U C104A A121U C124U]	0.403
GACCAAUCUGUCCUGAGAGCUCGAGAACAUCUUCGGAUGCAGAGGAGGCAGGCUUCGGCGGCGCGAUAGCGCCAACGUCCUCAACCUCCAAUGCAUCCCACCACAUGAUGAAGCCUGAAGAGCCUUGGUUUUUUG [C11U C15G U59C U112A]	-4.15
GACCAAUCUGCCCUCAGAGCUCGAGAACAUCUUCGGAUGCAGAGUAGGCAGGUUUCGGUGACGCGAUAGCGCCAACGUCCUCAACCUCCAAUGCAUCCCACCACUUGAUGAUGCCUGAAGAGCCUUGGUUUUUUG [G45U C53U G61A A105U]	-2.59
GACCAAUCUGCCCUCAGAGCUCGAGAACAUCUUCGGAUGCAGAGGAGGCAGGCUUCGGUGGCGUGAUAGCGCCAACUUCCUCAACCUCCAAUGCAUCCCACCACAUGAUGAUGCCUGAAGAGCCUUGGUUUUUUG [C64U G77U]	-0.465
GACCAAUCUGCCCUCAGAGCUCGAGAACAUCUUCGGAUGCAGGGGAGGCAGGCUUCGGUGGCGCGAUAGCGCCAACGUCCUCAACCUCCAAUGCAUCCCACCACAUGAUCAUGCCUGAAGAGCCUUGGUUUUUUG [A43G G110C]	-2.35
GACCAAUCGGCCAUCAGAGCUCGAGAACAUCUUCGGAUGCAGAGGAGGCAGGCUUCGGUGGCGCGAUAGCGCCAACGUCCUCAACCUCCAAUGCAUCCCACCACAUGAUAAUGCCUGAAGAGCCUUGGUUUUUUG [U9G C13A G110A]	-1.62
GACCAAUCUGCCCUCAGAGCUCGAGAACAUUUUCGGAUGCAGAGGAGGCAGGCUUCGGUGACGCGAUAGCGCCAACGUCCUCAACCUCCAAUGCAUCCCACCACAUGAUGAUGCCUGAAGAGGCUUGGUUUUUUG [C31U G61A C123G]	-3.22
GACCAAUCUGCCCUCAGAGCUCGAGAACAUCUUCGGAUGCAGAGGAGGCAGGCUUCGGUGGCGCGGUAGCGCCAACGUCCUCAACCACCAAUGCAUCCCACCACAUGAUGAUGCCUGAAGAGCCUUGGUUUUUUG [A66G U87A]	-0.982
GACCAAUCUGCCUUCAGAGCUCGAGAACAUCUUCGGAUGCAGAGGAGGCAGGCUUCGGUGGCGCGAUAGCGCCAACGUCCUCAACCUCCAAUACAUCCCACCACAUGAUGAUGCCUGAAGAGCCUUGGUUUUUUG [C13U G93A]	-0.513
GACCAAUCUGCCCUCUGAGCUCGAGAACAUCUUCGGAUGCAGAGGAUGCAGACUUCGGUGGCGCGAUAGCGCCAACGUCCUCAACCUCCAAUGCAUCCCACCACAUGAUGAUGCCUGAAGAGCCUUGGUUUUUUG [A16U G47U G52A]	-4.24
GACCAAUCUUCCCUCAGAGCUCGAGAACAUCUUCGGAUUCAGAGGAGGCAGGCUUCGGUGGCGCGAUAGCGCCAACGUCCUCAACCUCCAAUGCAUCCCACCACAUGAUGAUGCCUGAAGAGCCUUGGUUUUUUG [G10U G39U]	-0.472
GACCAAUCUGCCCUCAGAGCUCGAGAACAUCUUCGGAUGCAGAGGAGGCAGCCUUAGGUGGCGCGAUAGCGGCAACGUCCUCAACCUCCAAUGCAUCCCACCACAUGAUGAUGCCUGAAGAGCCUUGGUUUCUUG [G52C C56A C72G U132C]	-3.89
GACCAAUCUGCCCUCAGAGCUCGAGAACAUCUUCGGAUGCAGAGUAGGCAGGCUUCGGUGGCGCGAUAGCGCCAACGUCCUCAACCUUCAAUGCAUCCCACCACAUGAUGAUGCCUGAAGAGCCUUGGUUUUUUG [G45U C88U]	-0.272
GACCAAUCUGCGCUCAGAGCUCGAGAACAUCUUCGGAUGCAGAGGAGGCAGGCUUCGGUGGGGCGAUAGCGCCAACGUCCUCAACCUCCAAUGCAUCCCACCACAUGAUGAUGCCUGAAGAGCCUUGGUUUUUUG [C12G C62G]	-1.6
GACCAAUCUGCCCUCAGAACUCGAGAACAUCUUCGGAUGCAGAGGAGGCAGGCUUCGGUGGCGCGAUAGCGCCAACGUCCUCAACCUCCAAUGCAUCCCAGCACAUGAUGAUGCCUGAAGAGCCUUGGUUUUUUG [G19A C101G]	-5.15
GACCAAUCUGCCCUCAGAGCUCGAGAACAUCUUCGGAUGCCGAGGAGGCAGGCUUCGGUGGCGCGAUAGCGCCAACGUCCUCAACCUCCAAUGCAUCUCACCACAUGAUGAUGCCUGAAGAGCCUUGGUUUUUUG [A41C C98U]	-2.48
GACCAAUCUGCCCUCAGAGCUCGAGAACAUCUUCGGAUGCAGAGGAGGCAGGCUUCGGUGGCACGAUAGCGCCAACGUCCUCAACCUCCAAUGCUUCCCACCACAUGAUGAUGCCUGAAGAGCCUUGGUUUUUUG [G63A A95U]	-0.563
GACCAAUCUGCCCUCAGAGCUCGAGAACAUCUUCGGAUUCAGAGGAGGCAGGCUUCGGUGGCGCGAUAACGCCAACGACCUCAACCUCCAAUGCAUCCCACCACAUGAUGAUGCCUGAACAGCCUUGGUUUUCUG [G39U G69A U78A G120C U133C]	-2.17
GACCAAGCUACCCUCAGAGCUCGAGAACAUCUUCGGAUGCGGAGGAGGCAGGCUUCGGUGGCGCGAUAGCGCGAACGUAAUCAACCUCCAAUGCAUCCCACCACAUGAUGAUGCAUGAAGAGCCUUGGUUUUUUG [U7G G10A A41G C73G C79A C80A C115A]	-3.06
GACCAAUCUGCCCUCAGAGCUCGAGAACAUCUUCGGCUGCACAGGAGGCAGGCUUCGGUGGCGCGAUAGCGCCAACGUCCUCAACCUCCAAUGCAUCCCACCACAUGAUGAUGCCUGAAGAACCUUGGUUUUUUG [A37C G42C G122A]	-2.78
